In data set [1] the target is T1, MBP-MYC4 (Arabidopsis thaliana (Col-0), UniProt O49687 1-589). The experiment in a line: EMSA; EMSA kit (Thermo), room temperature, 20 min; binding buffer not stated (protein extraction buffer: 50 mM HEPES pH 7.5, 150 mM NaCl, 1 mM EGTA, 1% Triton X-100). The following applies: protein: recombinant; tags: MBP; chain copies: 2; label: 5'-biotin. In general terms: A gel shift assay detects complexes by their altered migration in electrophoresis.

Data set [2] concerns the target T2, MBP-MYC3 (Arabidopsis thaliana (Col-0), UniProt Q9FIP9 1-592). Described as above. The following applies: protein: recombinant; tags: MBP; chain copies: 2; label: 5'-biotin.
Data set [3] deals with T1, MBP-MYC4. The experiment in a line: competition; competes with biotin probe A; EMSA kit (Thermo), room temperature, 20 min; binding buffer not stated (protein extraction buffer: 50 mM HEPES pH 7.5, 150 mM NaCl, 1 mM EGTA, 1% Triton X-100). The settings on record: protein: recombinant; tags: MBP; chain copies: 2.
Data set [4] has as its target T2, MBP-MYC3. The description is as above. The settings on record: protein: recombinant; tags: MBP; chain copies: 2.

T1 sequence (O49687 whole entry): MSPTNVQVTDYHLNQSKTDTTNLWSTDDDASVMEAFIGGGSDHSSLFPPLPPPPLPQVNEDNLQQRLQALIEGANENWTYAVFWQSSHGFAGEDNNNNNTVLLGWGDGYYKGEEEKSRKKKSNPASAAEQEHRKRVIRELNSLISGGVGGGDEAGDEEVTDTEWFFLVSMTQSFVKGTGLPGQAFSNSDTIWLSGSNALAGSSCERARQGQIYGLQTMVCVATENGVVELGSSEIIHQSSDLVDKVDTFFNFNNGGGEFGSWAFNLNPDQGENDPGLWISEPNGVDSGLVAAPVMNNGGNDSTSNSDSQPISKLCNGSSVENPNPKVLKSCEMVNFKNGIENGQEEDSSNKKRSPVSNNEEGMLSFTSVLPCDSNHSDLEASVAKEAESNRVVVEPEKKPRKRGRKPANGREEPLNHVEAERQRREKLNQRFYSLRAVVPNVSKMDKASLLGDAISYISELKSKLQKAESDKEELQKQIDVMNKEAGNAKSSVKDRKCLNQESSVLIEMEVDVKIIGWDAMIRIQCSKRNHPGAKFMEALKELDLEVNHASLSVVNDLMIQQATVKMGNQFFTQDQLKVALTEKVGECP
T2 sequence (Q9FIP9 whole entry): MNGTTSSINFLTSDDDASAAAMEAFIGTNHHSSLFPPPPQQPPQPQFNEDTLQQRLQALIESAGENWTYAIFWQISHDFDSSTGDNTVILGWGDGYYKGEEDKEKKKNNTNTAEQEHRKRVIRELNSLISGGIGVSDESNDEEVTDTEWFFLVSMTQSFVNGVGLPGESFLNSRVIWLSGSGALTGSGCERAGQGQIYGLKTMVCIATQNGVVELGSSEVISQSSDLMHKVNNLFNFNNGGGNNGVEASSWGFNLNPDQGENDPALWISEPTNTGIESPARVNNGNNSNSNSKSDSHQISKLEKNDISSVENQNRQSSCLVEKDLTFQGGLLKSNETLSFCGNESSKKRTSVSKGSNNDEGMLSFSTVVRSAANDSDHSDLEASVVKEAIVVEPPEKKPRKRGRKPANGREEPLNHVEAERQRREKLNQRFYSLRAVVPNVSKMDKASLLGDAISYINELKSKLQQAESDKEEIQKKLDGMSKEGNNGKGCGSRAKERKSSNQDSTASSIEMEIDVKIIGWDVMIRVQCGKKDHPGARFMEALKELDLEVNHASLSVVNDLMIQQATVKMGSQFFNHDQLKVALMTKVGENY

B1: probe A (dsDNA)
DNA 1: TAAAGTATGACTCGTCACGTGACCTCCTCTTCTTCGC
DNA 2: GCGAAGAAGAGGAGGTCACGTGACGAGTCATACTTTA
As for B1, the binding result with MBP-MYC4 [1] and in the data set with MBP-MYC3 [2] was “binds” throughout.

B2: unlabelled probe A (dsDNA)
DNA 1: TAAAGTATGACTCGTCACGTGACCTCCTCTTCTTCGC
DNA 2: GCGAAGAAGAGGAGGTCACGTGACGAGTCATACTTTA
B2: the binding result with MBP-MYC4 [3] and with MBP-MYC3 [4] was “binds” throughout.

B3: probe A-m (dsDNA)
DNA 1: TAAAGTATGACTCGTAGCCGTACCTCCTCTTCTTCGC
DNA 2: GCGAAGAAGAGGAGGTACGGCTACGAGTCATACTTTA
For B3, the binding result with MBP-MYC4 [1] and with MBP-MYC3 [2] was “no binding” in each case.

(Values after PMC7160150, “Transcriptional repression of GIF1 by the KIX-PPD-MYC repressor complex controls seed size in Arabidopsis”.)
